Data taken from patent US20250304706A1 (Astellas, published 2025).

Target: T1, CD3εδ complex protein (human; alpaca, UniProt P07766 23-126; P04234 22-105)
T1 construct: they are not part of the secreted protein; also called human CD3; CD386 complex protein
Assay: ELISA, CD3 complex immobilized
Procedure: Binding activities of the anti-TSPAN8/anti-CD3 bispecific antibodies BTE-0001 to BTE-0067 to CD3 were evaluated by the ELISA. ELISA was performed according to a conventional method. The […] complex protein obtained in Example 1-3 was immobilized on a plate. BTE-0001 to BTE-0067 were used as the test antibodies. As a secondary antibody, Goat anti-Human IgG Fc, Multi-Species SP ads-HRP (2014-05, available from SouthernBiotech) was used. TMB+Substrate-Chromogen (S1599, available from Dako) was used as the detection reagent. Infinite M200pro (available from Tecan) was used to measure the absorbance. The EC50 values were calculated using variable slope model (four parameters) in GraphPad Prism with the maximum value in the same plate fixed at the top and the minimum value in the blank in the same plate fixed at the bottom. Since BTE-0001 was always measured in each plate as a control, only the EC50 value of BTE-0001 was expressed as the average value of a plurality of plates. […]

T1 sequence (P07766 23-126 limits assumed, stated change not applied, form in doubt, chain 1 of 2): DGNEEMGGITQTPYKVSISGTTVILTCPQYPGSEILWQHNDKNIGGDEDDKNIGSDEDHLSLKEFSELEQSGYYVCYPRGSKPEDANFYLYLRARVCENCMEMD
T1 sequence (P04234 22-105 limits assumed, stated change not applied, form in doubt, chain 2 of 2): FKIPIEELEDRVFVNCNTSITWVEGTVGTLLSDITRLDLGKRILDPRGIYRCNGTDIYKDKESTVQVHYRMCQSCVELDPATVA

Row | Binder | EC50
1 | BTE-0151 (bispecific antibody, human IgG1, kappa, L234A L235A, anti-CD37/anti-CD3) heavy: QVQLQQWGAGLLKPSETLSLTCAVYGGSFSPYYWSWIRQPPGKGLEWIGEINHSGSTNYNPSLKSRVTISVDTSKNQFSLKLSSVTAADTAVYYCARRAGDFDYWGQGTLVTVSSASTKGPSVFPLAPSSKSTSGGTAALGCLVKDYFPEPVTVSWNSGALTSGVHTFPAVLQSSGLYSLSSVVTVPSSSLGTQTYICNVNHKPSNTKVDKKVEPKSCDKTHTCPPCPAPEAAGGPSVFLFPPKPKDTLMISRTPEVTCVVVDVSHEDPEVKFNWYVDGVEVHNAKTKPREEQYNSTYRVVSVLTVLHQDWLNGKEYKCKVSNKALAAPIEKTISKAKGQPREPQVYTLPPSRDELTKNQVSLSCAVKGFYPSDIAVEWESNGQPENNYKTTPPVLDSDGSFFLVSKLTVDKSRWQQGNVFSCSVMHEALHNHYTQKSLSLSPGK light: not shown scFv: not shown | 0.0747 µg/mL
2 | BTE-0146 (bispecific antibody, human IgG1, kappa, L234A L235A, anti-CD37/anti-CD3) heavy: QVQLQQWGAGLLKPSETLSLTCAVYGGSFSPYYWSWIRQPPGKGLEWIGEINHSGSTNYNPSLKSRVTISVDTSKNQFSLKLSSVTAADTAVYYCARRAGDFDYWGQGTLVTVSSASTKGPSVFPLAPSSKSTSGGTAALGCLVKDYFPEPVTVSWNSGALTSGVHTFPAVLQSSGLYSLSSVVTVPSSSLGTQTYICNVNHKPSNTKVDKKVEPKSCDKTHTCPPCPAPEAAGGPSVFLFPPKPKDTLMISRTPEVTCVVVDVSHEDPEVKFNWYVDGVEVHNAKTKPREEQYNSTYRVVSVLTVLHQDWLNGKEYKCKVSNKALAAPIEKTISKAKGQPREPQVYTLPPSRDELTKNQVSLSCAVKGFYPSDIAVEWESNGQPENNYKTTPPVLDSDGSFFLVSKLTVDKSRWQQGNVFSCSVMHEALHNHYTQKSLSLSPGK light: not shown scFv: not shown | 0.488 µg/mL
3 | BTE-0145 (bispecific antibody, human IgG1, kappa, L234A L235A, anti-CD37/anti-CD3) heavy: QVQLQQWGAGLLKPSETLSLTCAVYGGSFSPYYWSWIRQPPGKGLEWIGEINHSGSTNYNPSLKSRVTISVDTSKNQFSLKLSSVTAADTAVYYCARRAGDFDYWGQGTLVTVSSASTKGPSVFPLAPSSKSTSGGTAALGCLVKDYFPEPVTVSWNSGALTSGVHTFPAVLQSSGLYSLSSVVTVPSSSLGTQTYICNVNHKPSNTKVDKKVEPKSCDKTHTCPPCPAPEAAGGPSVFLFPPKPKDTLMISRTPEVTCVVVDVSHEDPEVKFNWYVDGVEVHNAKTKPREEQYNSTYRVVSVLTVLHQDWLNGKEYKCKVSNKALAAPIEKTISKAKGQPREPQVYTLPPSRDELTKNQVSLSCAVKGFYPSDIAVEWESNGQPENNYKTTPPVLDSDGSFFLVSKLTVDKSRWQQGNVFSCSVMHEALHNHYTQKSLSLSPGK light: not shown scFv: not shown | 0.0854 µg/mL
4 | BTE-0138 (bispecific antibody, human IgG1, kappa, L234A L235A, anti-CD37/anti-CD3) heavy: QVQLQQWGAGLLKPSETLSLTCAVYGGSFSPYYWSWIRQPPGKGLEWIGEINHSGSTNYNPSLKSRVTISVDTSKNQFSLKLSSVTAADTAVYYCARRAGDFDYWGQGTLVTVSSASTKGPSVFPLAPSSKSTSGGTAALGCLVKDYFPEPVTVSWNSGALTSGVHTFPAVLQSSGLYSLSSVVTVPSSSLGTQTYICNVNHKPSNTKVDKKVEPKSCDKTHTCPPCPAPEAAGGPSVFLFPPKPKDTLMISRTPEVTCVVVDVSHEDPEVKFNWYVDGVEVHNAKTKPREEQYNSTYRVVSVLTVLHQDWLNGKEYKCKVSNKALAAPIEKTISKAKGQPREPQVYTLPPSRDELTKNQVSLSCAVKGFYPSDIAVEWESNGQPENNYKTTPPVLDSDGSFFLVSKLTVDKSRWQQGNVFSCSVMHEALHNHYTQKSLSLSPGK light: not shown scFv: not shown | 0.071 µg/mL
5 | BTE-0143 (bispecific antibody, human IgG1, kappa, L234A L235A, anti-CD37/anti-CD3) heavy: QVQLQQWGAGLLKPSETLSLTCAVYGGSFSPYYWSWIRQPPGKGLEWIGEINHSGSTNYNPSLKSRVTISVDTSKNQFSLKLSSVTAADTAVYYCARRAGDFDYWGQGTLVTVSSASTKGPSVFPLAPSSKSTSGGTAALGCLVKDYFPEPVTVSWNSGALTSGVHTFPAVLQSSGLYSLSSVVTVPSSSLGTQTYICNVNHKPSNTKVDKKVEPKSCDKTHTCPPCPAPEAAGGPSVFLFPPKPKDTLMISRTPEVTCVVVDVSHEDPEVKFNWYVDGVEVHNAKTKPREEQYNSTYRVVSVLTVLHQDWLNGKEYKCKVSNKALAAPIEKTISKAKGQPREPQVYTLPPSRDELTKNQVSLSCAVKGFYPSDIAVEWESNGQPENNYKTTPPVLDSDGSFFLVSKLTVDKSRWQQGNVFSCSVMHEALHNHYTQKSLSLSPGK light: not shown scFv: not shown | 0.0644 µg/mL
6 | BTE-0139 (bispecific antibody, human IgG1, kappa, L234A L235A, anti-CD37/anti-CD3) heavy: QVQLQQWGAGLLKPSETLSLTCAVYGGSFSPYYWSWIRQPPGKGLEWIGEINHSGSTNYNPSLKSRVTISVDTSKNQFSLKLSSVTAADTAVYYCARRAGDFDYWGQGTLVTVSSASTKGPSVFPLAPSSKSTSGGTAALGCLVKDYFPEPVTVSWNSGALTSGVHTFPAVLQSSGLYSLSSVVTVPSSSLGTQTYICNVNHKPSNTKVDKKVEPKSCDKTHTCPPCPAPEAAGGPSVFLFPPKPKDTLMISRTPEVTCVVVDVSHEDPEVKFNWYVDGVEVHNAKTKPREEQYNSTYRVVSVLTVLHQDWLNGKEYKCKVSNKALAAPIEKTISKAKGQPREPQVYTLPPSRDELTKNQVSLSCAVKGFYPSDIAVEWESNGQPENNYKTTPPVLDSDGSFFLVSKLTVDKSRWQQGNVFSCSVMHEALHNHYTQKSLSLSPGK light: not shown scFv: not shown | 0.444 µg/mL
7 | BTE-0137 (bispecific antibody, human IgG1, kappa, L234A L235A, anti-CD37/anti-CD3) heavy: QVQLQQWGAGLLKPSETLSLTCAVYGGSFSPYYWSWIRQPPGKGLEWIGEINHSGSTNYNPSLKSRVTISVDTSKNQFSLKLSSVTAADTAVYYCARRAGDFDYWGQGTLVTVSSASTKGPSVFPLAPSSKSTSGGTAALGCLVKDYFPEPVTVSWNSGALTSGVHTFPAVLQSSGLYSLSSVVTVPSSSLGTQTYICNVNHKPSNTKVDKKVEPKSCDKTHTCPPCPAPEAAGGPSVFLFPPKPKDTLMISRTPEVTCVVVDVSHEDPEVKFNWYVDGVEVHNAKTKPREEQYNSTYRVVSVLTVLHQDWLNGKEYKCKVSNKALAAPIEKTISKAKGQPREPQVYTLPPSRDELTKNQVSLSCAVKGFYPSDIAVEWESNGQPENNYKTTPPVLDSDGSFFLVSKLTVDKSRWQQGNVFSCSVMHEALHNHYTQKSLSLSPGK light: not shown scFv: not shown | 1.6 µg/mL
8 | BTE-0140 (bispecific antibody, human IgG1, kappa, L234A L235A, anti-CD37/anti-CD3) heavy: QVQLQQWGAGLLKPSETLSLTCAVYGGSFSPYYWSWIRQPPGKGLEWIGEINHSGSTNYNPSLKSRVTISVDTSKNQFSLKLSSVTAADTAVYYCARRAGDFDYWGQGTLVTVSSASTKGPSVFPLAPSSKSTSGGTAALGCLVKDYFPEPVTVSWNSGALTSGVHTFPAVLQSSGLYSLSSVVTVPSSSLGTQTYICNVNHKPSNTKVDKKVEPKSCDKTHTCPPCPAPEAAGGPSVFLFPPKPKDTLMISRTPEVTCVVVDVSHEDPEVKFNWYVDGVEVHNAKTKPREEQYNSTYRVVSVLTVLHQDWLNGKEYKCKVSNKALAAPIEKTISKAKGQPREPQVYTLPPSRDELTKNQVSLSCAVKGFYPSDIAVEWESNGQPENNYKTTPPVLDSDGSFFLVSKLTVDKSRWQQGNVFSCSVMHEALHNHYTQKSLSLSPGK light: not shown scFv: not shown | 0.205 µg/mL
9 | BTE-0144 (bispecific antibody, human IgG1, kappa, L234A L235A, anti-CD37/anti-CD3) heavy: QVQLQQWGAGLLKPSETLSLTCAVYGGSFSPYYWSWIRQPPGKGLEWIGEINHSGSTNYNPSLKSRVTISVDTSKNQFSLKLSSVTAADTAVYYCARRAGDFDYWGQGTLVTVSSASTKGPSVFPLAPSSKSTSGGTAALGCLVKDYFPEPVTVSWNSGALTSGVHTFPAVLQSSGLYSLSSVVTVPSSSLGTQTYICNVNHKPSNTKVDKKVEPKSCDKTHTCPPCPAPEAAGGPSVFLFPPKPKDTLMISRTPEVTCVVVDVSHEDPEVKFNWYVDGVEVHNAKTKPREEQYNSTYRVVSVLTVLHQDWLNGKEYKCKVSNKALAAPIEKTISKAKGQPREPQVYTLPPSRDELTKNQVSLSCAVKGFYPSDIAVEWESNGQPENNYKTTPPVLDSDGSFFLVSKLTVDKSRWQQGNVFSCSVMHEALHNHYTQKSLSLSPGK light: not shown scFv: not shown | 0.138 µg/mL
10 | BTE-0141 (bispecific antibody, human IgG1, kappa, L234A L235A, anti-CD37/anti-CD3) heavy: QVQLQQWGAGLLKPSETLSLTCAVYGGSFSPYYWSWIRQPPGKGLEWIGEINHSGSTNYNPSLKSRVTISVDTSKNQFSLKLSSVTAADTAVYYCARRAGDFDYWGQGTLVTVSSASTKGPSVFPLAPSSKSTSGGTAALGCLVKDYFPEPVTVSWNSGALTSGVHTFPAVLQSSGLYSLSSVVTVPSSSLGTQTYICNVNHKPSNTKVDKKVEPKSCDKTHTCPPCPAPEAAGGPSVFLFPPKPKDTLMISRTPEVTCVVVDVSHEDPEVKFNWYVDGVEVHNAKTKPREEQYNSTYRVVSVLTVLHQDWLNGKEYKCKVSNKALAAPIEKTISKAKGQPREPQVYTLPPSRDELTKNQVSLSCAVKGFYPSDIAVEWESNGQPENNYKTTPPVLDSDGSFFLVSKLTVDKSRWQQGNVFSCSVMHEALHNHYTQKSLSLSPGK light: not shown scFv: not shown | 0.029 µg/mL
11 | BTE-0142 (bispecific antibody, human IgG1, kappa, L234A L235A, anti-CD37/anti-CD3) heavy: QVQLQQWGAGLLKPSETLSLTCAVYGGSFSPYYWSWIRQPPGKGLEWIGEINHSGSTNYNPSLKSRVTISVDTSKNQFSLKLSSVTAADTAVYYCARRAGDFDYWGQGTLVTVSSASTKGPSVFPLAPSSKSTSGGTAALGCLVKDYFPEPVTVSWNSGALTSGVHTFPAVLQSSGLYSLSSVVTVPSSSLGTQTYICNVNHKPSNTKVDKKVEPKSCDKTHTCPPCPAPEAAGGPSVFLFPPKPKDTLMISRTPEVTCVVVDVSHEDPEVKFNWYVDGVEVHNAKTKPREEQYNSTYRVVSVLTVLHQDWLNGKEYKCKVSNKALAAPIEKTISKAKGQPREPQVYTLPPSRDELTKNQVSLSCAVKGFYPSDIAVEWESNGQPENNYKTTPPVLDSDGSFFLVSKLTVDKSRWQQGNVFSCSVMHEALHNHYTQKSLSLSPGK light: not shown scFv: not shown | 0.292 µg/mL
12 | BTE-0136 (bispecific antibody, human IgG1, kappa, L234A L235A, anti-CD37/anti-CD3) heavy: QVQLQQWGAGLLKPSETLSLTCAVYGGSFSPYYWSWIRQPPGKGLEWIGEINHSGSTNYNPSLKSRVTISVDTSKNQFSLKLSSVTAADTAVYYCARRAGDFDYWGQGTLVTVSSASTKGPSVFPLAPSSKSTSGGTAALGCLVKDYFPEPVTVSWNSGALTSGVHTFPAVLQSSGLYSLSSVVTVPSSSLGTQTYICNVNHKPSNTKVDKKVEPKSCDKTHTCPPCPAPEAAGGPSVFLFPPKPKDTLMISRTPEVTCVVVDVSHEDPEVKFNWYVDGVEVHNAKTKPREEQYNSTYRVVSVLTVLHQDWLNGKEYKCKVSNKALAAPIEKTISKAKGQPREPQVYTLPPSRDELTKNQVSLSCAVKGFYPSDIAVEWESNGQPENNYKTTPPVLDSDGSFFLVSKLTVDKSRWQQGNVFSCSVMHEALHNHYTQKSLSLSPGK light: not shown scFv: not shown | 0.0669 µg/mL
